Values quoted from earlier work, collected in publication PMC11596140.

Molecular target: Cdc4 (Saccharomyces cerevisiae) (UniProt P07834)
Assay: intrinsic Trp fluorescence

Chain of UniProt P07834 (P07834 whole entry): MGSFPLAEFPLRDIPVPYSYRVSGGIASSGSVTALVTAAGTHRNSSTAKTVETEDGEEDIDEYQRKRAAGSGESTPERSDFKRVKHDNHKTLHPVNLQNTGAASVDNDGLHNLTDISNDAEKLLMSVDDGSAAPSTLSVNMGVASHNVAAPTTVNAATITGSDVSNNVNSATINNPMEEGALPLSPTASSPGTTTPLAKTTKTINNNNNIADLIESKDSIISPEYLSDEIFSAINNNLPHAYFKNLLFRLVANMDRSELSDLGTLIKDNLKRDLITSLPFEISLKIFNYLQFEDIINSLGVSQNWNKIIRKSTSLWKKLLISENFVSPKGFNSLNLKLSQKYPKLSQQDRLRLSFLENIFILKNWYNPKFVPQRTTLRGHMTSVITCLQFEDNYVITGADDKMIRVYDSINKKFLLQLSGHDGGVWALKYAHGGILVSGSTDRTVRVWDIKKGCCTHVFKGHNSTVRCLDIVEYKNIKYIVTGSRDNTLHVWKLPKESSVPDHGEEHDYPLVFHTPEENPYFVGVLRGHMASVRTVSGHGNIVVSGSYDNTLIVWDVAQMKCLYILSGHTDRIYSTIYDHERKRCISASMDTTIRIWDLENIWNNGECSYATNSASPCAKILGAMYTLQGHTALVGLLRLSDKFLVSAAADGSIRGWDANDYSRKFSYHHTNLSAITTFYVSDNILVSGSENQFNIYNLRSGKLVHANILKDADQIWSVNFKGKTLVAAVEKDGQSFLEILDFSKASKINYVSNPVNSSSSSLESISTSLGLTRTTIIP

Sic1 (from UniProt P38634)
Kd: 600 nM
